Target: T1, mouse CD40 (mouse, UniProt P27512 20-193, limits assumed)
T1 construct: also called mCD40
T1 sequence (looked up): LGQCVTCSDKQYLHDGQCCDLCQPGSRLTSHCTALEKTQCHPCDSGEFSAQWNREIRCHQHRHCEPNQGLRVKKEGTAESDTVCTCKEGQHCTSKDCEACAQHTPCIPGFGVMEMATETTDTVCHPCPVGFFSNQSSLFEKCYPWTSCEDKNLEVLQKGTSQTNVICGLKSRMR
Assay: not described; the molecule was used as isotype control in mice

B1: Fusion protein 1 (FP1), anti-MUC-1 × anti-CD40 bispecific binding protein (bispecific antibody, human IgG1, lambda, L234A L235A)
heavy: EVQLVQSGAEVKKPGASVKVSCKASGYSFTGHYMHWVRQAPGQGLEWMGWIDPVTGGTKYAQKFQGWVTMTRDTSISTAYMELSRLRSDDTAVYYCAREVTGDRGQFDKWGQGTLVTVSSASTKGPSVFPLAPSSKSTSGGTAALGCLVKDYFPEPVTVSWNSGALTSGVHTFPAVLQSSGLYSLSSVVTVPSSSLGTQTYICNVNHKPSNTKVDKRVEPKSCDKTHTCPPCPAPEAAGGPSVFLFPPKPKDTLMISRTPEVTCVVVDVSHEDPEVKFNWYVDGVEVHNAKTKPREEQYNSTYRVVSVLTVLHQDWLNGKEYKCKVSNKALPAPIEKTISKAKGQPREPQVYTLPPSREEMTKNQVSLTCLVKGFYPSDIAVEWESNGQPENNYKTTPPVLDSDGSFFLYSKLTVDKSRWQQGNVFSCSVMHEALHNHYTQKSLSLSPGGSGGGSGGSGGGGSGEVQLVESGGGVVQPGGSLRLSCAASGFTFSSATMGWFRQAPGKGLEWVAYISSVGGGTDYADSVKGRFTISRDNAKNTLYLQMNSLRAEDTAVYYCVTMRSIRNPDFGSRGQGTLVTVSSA
light: SYVLTQPPSVSVAPGKTARITCGGNNIGSKSVHWYQQKPGQAPVLVIYYGSNRPSGIPERFSGSNSGNTATLTISRVEAGDEADYYCQVWDSSSDWVFGGGTKLTVLGQPKAAPSVTLFPPSSEELQANKATLVCLISDFYPGAVTVAWKADSSPVKAGVETTTPSKQSNNKYAASSYLSLTPEQWKSHKSYSCQVTHEGSTVEKTVAPTECS
notes: Fully human anti-MUC-1 IgG1 with one anti-human CD40 VHH fused by a 15 aa GS linker to the C-terminus of each heavy chain; also called Anti MUC-1 × CD40; anti MUC-1 × hCD40 A02
- binding result: no binding
